The term Kd denotes the free concentration of one partner at which half of the binding sites on the other are occupied at equilibrium, for simple one-to-one binding. A lower Kd goes with a tighter complex.

The experiment deals with Rabbit skeletal actin (unoxidized) (rabbit) (UniProt P68135). Description: other fluorescence titration; profilin stock titrated into 0.15 uM actin; quenching of the intrinsic tryptophan fluorescence of actin, excitation 295 nm, emission 330 nm; 5 mM PIPES pH 7, 0.2 mM CaCl2, 0.2 mM ATP, 0.5 mM DTT (G-buffer conditions).

Consider “human profilin-1 (from UniProt P07737 1-140) (natural protein; other documents disagree on this pair)”, for which the dissociation constant (Kd) came to 500 nM.

The values above are taken from PMC8452626.
